The record followed here is the nanobody polyreactivity screen of Harvey et al. (2022).

A short description of this data set: yeast display, Sf9 membrane polyspecificity reagent, FACS + sequencing; frameworks hold sequencing errors. In outline:
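In a synthetic yeast display library (Saccharomyces cerevisiae BJ5465), nanobody expression was induced with galactose for 36–48 hours. FACS gates were set low and high (top ~1%) using anti-HA fluorescence for expression and streptavidin fluorescence for binding of the Sf9 membrane reagent. Each polyreactivity label is drawn from the gate of origin.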
In the case of “QVQLVESGGGLVQAGGSLRLSCAASGRTFTRYAMGWYRQAPGKERELVAAITSSGRTYYADSVKGRFTISRDNAKNTVYLQMNSLKPEDTAVYYCAKYRANALNYANRGAGDYWGQGTQVTVSS”, the “polyreactivity (PSR sort gate)” value is on record as “high polyreactivity”.
Under “QVQLVESGGGLVQAGGSLRLSCAASGITFYYYAMGWYRQAPGKERELVAAISSRGGSTYYADSVKGRFTISRDNAKNTVYLQMNSLKPEDTAVYYCAALYDYWGQGTQVTVSS” stands “high polyreactivity”.
The entry for “QVQLVESGGGLVQAGGSLRLSCAASGYTFDANAMGWYRQAPGKERELVAAIRSGGGLTYYADSVKGRFTISRDNAKNTVYLQMNSLKPEDTAVYYCAAVTRRDSFEYWGQGTQVTVSS” is “low polyreactivity”; for “QVQLVESGGGLVQAGGSLRLSCAASGSTFSIYAMGWYRQAPGKERELVAAISGSGSRTYYADSVKGRFTISRDNAKNTVYLQMNSLKPEDTAVYYCAARGRHRDGFDFNYWGQGTQVTVSS” it is “high polyreactivity”; for “QVQLVESGGGLVQAGGSLRLSCAASGSTFDDYVMGWYRQAPGKERELVAGINSRGTSTDYADSVKGRFTISRDNAKNTVYLQLNSLKPEDTAVYYCAADDSHGYDYWGQGTQVTVSS” it is “low polyreactivity”.
Under “QVQLVESGGGLVQAGGSLRLSCAASGRIFGIYAMGWYRQAPGKERELVADIDVSDGSTYYADSVKGRFTISRDNAKNTVYLQMNSLKPEDTAVYYCNAEDSSRWYDWYLHDYWGQGTQVTVSS” stands “high polyreactivity”; under “QVQLVESGGGLVQAGGSLRLSCAASGSTFTDYTMGWYRQAPGKERELVAVISQSGGSTYYADSVKGRFTISRDNAKNTVYLQMNSLKPEDTAVYYCAADPREDNQDRYYWGQGTQVTVSS”, “high polyreactivity”.
With “QGQLVESGGGLVQAGGSLRLSCAGSGRTFSSNAMGWYRQGRGKVRELVASISFRGGRTYYADSVKGRFTISRHNAKKTVYLQMNSLKPEDTAVYYCVSRTKRTGYGYWGQGTQVTVSS”, the “polyreactivity (PSR sort gate)” value was “high polyreactivity”.
The entry for “QVQLVESGGGLVQAGGSLRLSCAASGITFNGYVMGWYRQAPGKERELVAAITSGARTYYADSVKGRFTISRDNAKNTVYLQMNSLKPEDTAVYYCAASIWLYRYYYWGQVTQVTVSS” is “high polyreactivity”.
For “QVQLVESGGGLVQAGGSLRLSCAASGITFVYYAMGWYRQAPGKDRELVAAITSTGGSTYYADSVKGRFTISRDNAKNTVYLQMNSLKPEDTAVYYCAAVPRGTQGAMDYWGQGTQVTVSS”, the “polyreactivity (PSR sort gate)” value was “low polyreactivity”.
The entry for “QVQLVESGVGLVQAGGSLRLSCAASGRIFGSYTMGWYRQAPGKERELVAGISRRGGSTYYADSVKGRFTISRDNAKNTVYLQMNSLKPEDTAVYYCAVVSSHYKGPGRNGYDYWGQGTQVTVSS” is “high polyreactivity”; for “QVQLVESGGGLVQAGGSLRLSCAASGRTFGKYARGWYRQAPGKERELVASITFSSGSTYYADSVKGRFTISRDNAKNTVYLQMNSLKPEDTAVYYCAKRGWGIYDYWGQGTQVTVSS” it is “low polyreactivity”.
Under “QVQLVESGGGLVQAGGSLRLTCAASGSIFSHYAMGWYRQATGKERELVAAITYGGGSTYYADSVKGRFTISRDIAMNTVYLQMNSLKPDDTAVYYCAKEFKYWGYPYDYWGQGTQVTVSS” stands “low polyreactivity”.
“QVQLVESGGCLVQAGGSLPLSSAASGSTFSYNDMGSDRQAPGKARELVADINVSVGRTYYADSVKGRFTISRDNAKNTVYLQMNSLKPEDTAVYYCAKDYYRYHYYYCGQGTQVTVSS”: the “polyreactivity (PSR sort gate)” value is reported as “low polyreactivity”.
The entry for “QVQLVESGGGLVQAGGSLRLSCAASGRIFYANAMGWYRQAPGKERELVASISTTGDSTYYADSVKGRFTISRDNAKNTDYLQMNSLKPEDTAVYYCNTRGSEYLWYGYDYWGQGTQVTVSS” is “low polyreactivity”.
The entry for “QVKLVESGGGLVQAGGSLRLSCAASGSTFSPYVKAWYRQAPGKERELVAAIRYRGGSTYYADSVKGRFTISRDNAKNTVYLQMNSLKPEDTAVYYCATKRSHYSGGYWGQGTQVTVSS” is “high polyreactivity”.
